Data reported in the domain aggregation screens of Martell et al. (2025).

Assay: soluble fraction after stress (log2 fold change); higher = more stays soluble; pooled small domains, quantitative proteomics
Conditions: stress: 75 degC
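Note: 20 min heating vs room temperature control held 20 min.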

For “HMAESSLPKMPRDESKYIYHSVQPGETVYSLSKRYSVSESDIVKSNPGIDITKLSLGLEVAIPRI”, the “soluble fraction (log2)” value was 0.691.

For “HMAEVAFEEQNIEQISNLLLRIQAIFAELMTALDKEKGGEIADNLERLYVFFLEKLGDANVRKDPAP”, the “soluble fraction (log2)” value was 0.585.

With “HMAEVHVDGVTYQFSNPEQAVKFARKIAKELGLKVEVHGETVHVK” the “soluble fraction (log2)” value was -0.0253.

With “HMAEVTLTVREQEVLHLLARGMSNGEMAAHLYVEPTTIKYHLTGLLQKTGSRDRLQAVLWGIRAGMVH” the “soluble fraction (log2)” value was -2.81.

In the case of “HMAEWIYGKNVVKQSIEEGMVLKLILQRKEDPLFVLAQEKQIPVEILDRHKMTSLVKSDRHQGVAAQI”, the “soluble fraction (log2)” value is reported as -0.742.

In the case of “HMAFEDYAGEYRSAADFAESLHEDTGTEIPESLRYYIDWQALARDMALNGEIMVFQTGFDEVHIFWS”, the “soluble fraction (log2)” value is reported as -0.63.

With “HMAFEITSAERTRLEDIARKGLTAYTAEWKQLPASEKKALNKTGLQDFLKSMAADADSAREEEA” the “soluble fraction (log2)” value was 0.0228.

In the case of “HMAFKEQLKAARLAKGYTQEQLATAIGVAKSTFTGYEKGNSEPNMLTIKKLMEILEVDANYLWY”, the “soluble fraction (log2)” value is reported as -2.91.

For “HMAFRWQQIADTITSMIANGSYPRGSRLPTEAALADSFGVNRHTVRRAVAALRDTGLVQPRQGAGVFVIG”, the “soluble fraction (log2)” value was -2.02.

In the case of “HMAFYQDIAVDLRKQIIDGVYPKNSRLPNQAELAKLYTTSRVTIQKALKILQIEGLIEGRQGSGSYVKGP”, the “soluble fraction (log2)” value is reported as -2.11.

With “HMAGHKVDFSELPARSQAFIGKNFPTEMVKNVEMERKDAKDHYTVLLSNGTKVMFDGTSGELTGV” the “soluble fraction (log2)” value was 0.0762.

With “HMAGISQGLAENVERRITTLLREQKEVPVHDIDFPGISRETVGQVLHQMVQEEKLLLDDGMISLSPNQ” the “soluble fraction (log2)” value was 0.181.

In the case of “HMAGPAGASEVANARDGDDETPLHMAARGGYPGIVRMLLAAGAKADAKSAAGLFPWNYAEDGSELHALLPR”, the “soluble fraction (log2)” value is reported as 0.139.

In the case of “HMAGPTIVTNSQGVPNYHLVKRGDTVSQIAQRYGLNYRQIGAINNLDSKYTIYSGQWLKLWQG”, the “soluble fraction (log2)” value is reported as -1.37.

In the case of “HMAGQWQQDQNGWKYKTDNGDHMKNTWYQDSDSRWYYFGPDGYMKSSTMTPDGYVVGSDGAWIE”, the “soluble fraction (log2)” value is reported as -0.662.

In the case of “HMAGSGDLNAKYLASIPAPMKAKILKAVANHYGVSISEFEEEVTDKDAEALYEYIPTRSMAVQVLRDMKG”, the “soluble fraction (log2)” value is reported as -0.829.

For “HMAGSGLPVPRFVSLADDRVNARAGPGFRFPINWVYLRKGFPVEVVDEFGPWRRIRDIDGVAAWIHLSMLS”, the “soluble fraction (log2)” value was -0.654.

For “HMAGTAFPVRIMLKGIDRIGLLNEITGYISVAMGVNMRKLNLSTEDGIFEGYIDMLVHDRTVLESMIDNL”, the “soluble fraction (log2)” value was -0.381.

With “HMAGTELASIKEIQSLVDRSEEALSARNFFWPKDKSESMLLSFRNMFSRLKLTKMDVQIFHGIFKVMEKS” the “soluble fraction (log2)” value was 0.24.

In the case of “HMAGVSVTSLTTFWRLAADTPDTPSGADDPSGWSRTEPSIPDGYEGKLYRTIRTIMSDGTATWTSPD”, the “soluble fraction (log2)” value is reported as -0.728.

With “HMAGYDTYMVDRDAELLPWLLETLQRESRSKVKATLQGNGIKVNGKRVTQFNYPLKAGMKVSVSKSK” the “soluble fraction (log2)” value was 0.0362.

In the case of “HMAHILDLMELKQILRLHMDGLSNRRISDTLGIHRNTINSYVSQFKASKHGIEELLKLSDYELAQLFP”, the “soluble fraction (log2)” value is reported as -2.49.

For “HMAHRYQQIADDLGRRVEAGEFAAGRLLPSEATLSGQYKASRVTVRKALEALRTDGLVESRQGFGWFVAAD”, the “soluble fraction (log2)” value was -0.405.

For “HMAIADQPISAEHFDKLRQVLNSNTQETIASAKQHWASISNNAEFTNENVTRTLLEEMLAFIKSAS”, the “soluble fraction (log2)” value was 0.415.

With “HMAIDVQELARTRLRSLRTTLGYSLDELAARTHLSPSTISRLETGKRSLSLDVVVPLAQALHVSLDVLFEA” the “soluble fraction (log2)” value was -2.67.

In the case of “HMAIEGIFEKYQRRSDQLIPILQDVQKEFGYIAPESVRHISRYLRISENQIFGVSSFYAQFRFT”, the “soluble fraction (log2)” value is reported as -0.228.

With “HMAIGTDPETGISVVADGTDFIWTRSGATSTIFLRLDSENSYILNVKQGDFEVIDYELGEGQENAINIDQS” the “soluble fraction (log2)” value was 0.0422.

In the case of “HMAIPEVDPAKQGVSATQLAALDALAHRNAGEGRVAGMVNVVIRNGEIVYYKATGPRHIDGGAPLKSTDLF”, the “soluble fraction (log2)” value is reported as -0.148.

For “HMAIQGVRLYERTLETGDPWLDRPLSTLSTGTRLIILVRRGGDVLIPKGDTVLLAGDTLVINDS”, the “soluble fraction (log2)” value was -3.85.

With “HMAIRPDAAVSSHAVKQRLQSLIRAEDPAAPLSDEALRLALSALGIGVSRRAVAKYRAEMGIPSSSQRKK” the “soluble fraction (log2)” value was -0.492.
